Source: the supplement of paper PMC10567573

B1: FBXO3 (parent)
chain: GGFPIIRDQIFRYVHDPECVATTG

Variants of: B1
Assay: protein stability index of a GFP-peptide fusion (GPS, HEK-293T) (PSI 1-6); higher = more stable
Details: c terminus: a fixed tail appended
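Also: lentivirally expressed fusions sorted by FACS into six bins by GFP to DsRed ratio, PSI derived from sequencing read proportions per bin multiplied by bin number.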

Compared with GGFPIIDDQIFRYVHDPECVATTG, GGFSIIRDQIFRYVHDPECVATTG is lower in protein stability index: 3.92 for the first, 2.03 for the second.

Going from GGFIIIRDQIFRYVHDPECVATTG to GGFQIIRDQIFRYVHDPECVATTG, the protein stability index falls from 2.08 to 1.75.

Going from GGFFIIRDQIFRYVHDPECVATTG to GGFKIIRDQIFRYVHDPECVATTG, the protein stability index rises from 2.3 to 2.54.

First: GGFHIIRDQIFRYVHDPECVATTG
Second: GGFYIIRDQIFRYVHDPECVATTG
The protein stability index of the first is lower: 2.02 for the first, 2.75 for the second.

Compared with GGFLIIRDQIFRYVHDPECVATTG, GGFEIIRDQIFRYVHDPECVATTG is higher in protein stability index: 2.39 for the first, 2.93 for the second.

First: GGFTIIRDQIFRYVHDPECVATTG
Second: GGFAIIRDQIFRYVHDPECVATTG
The protein stability index of the first is higher: 1.67 for the first, 1.66 for the second.

First: GGFNIIRDQIFRYVHDPECVATTG
Second: GGFCIIRDQIFRYVHDPECVATTG
The protein stability index of the first is lower: 2.15 for the first, 2.23 for the second.

First: GGFDIIRDQIFRYVHDPECVATTG
Second: GGFGIIRDQIFRYVHDPECVATTG
The protein stability index of the first is higher: 2.72 for the first, 2.33 for the second.

Compared with GGFVIIRDQIFRYVHDPECVATTG, GGFRIIRDQIFRYVHDPECVATTG is higher in protein stability index: 1.29 for the first, 2.21 for the second.

Compared with GEFPIIRDQIFRYVHDPECVATTG, GNFPIIRDQIFRYVHDPECVATTG is higher in protein stability index: 1.97 for the first, 2.28 for the second.

Compared with GYFPIIRDQIFRYVHDPECVATTG, GRFPIIRDQIFRYVHDPECVATTG is higher in protein stability index: 1.78 for the first, 2.41 for the second.

Compared with GTFPIIRDQIFRYVHDPECVATTG, GSFPIIRDQIFRYVHDPECVATTG is lower in protein stability index: 2.19 for the first, 1.76 for the second.

Going from GQFPIIRDQIFRYVHDPECVATTG to GLFPIIRDQIFRYVHDPECVATTG, the protein stability index rises from 1.25 to 1.86.

Going from GHFPIIRDQIFRYVHDPECVATTG to GKFPIIRDQIFRYVHDPECVATTG, the protein stability index rises from 1.76 to 2.54.

Compared with GVFPIIRDQIFRYVHDPECVATTG, GFFPIIRDQIFRYVHDPECVATTG is lower in protein stability index: 2.5 for the first, 2.03 for the second.

Compared with GIFPIIRDQIFRYVHDPECVATTG, GAFPIIRDQIFRYVHDPECVATTG is lower in protein stability index: 2.2 for the first, 1.82 for the second.

Going from GDFPIIRDQIFRYVHDPECVATTG to GCFPIIRDQIFRYVHDPECVATTG, the protein stability index falls from 3.02 to 1.51.

First: GPFPIIRDQIFRYVHDPECVATTG
Second: GWFPIIRDQIFRYVHDPECVATTG
The protein stability index of the first is lower: 2.38 for the first, 2.87 for the second.

Going from GMFPIIRDQIFRYVHDPECVATTG to GGFPPIRDQIFRYVHDPECVATTG, the protein stability index rises from 1.68 to 1.85.

Going from GGFPVIRDQIFRYVHDPECVATTG to GGFPRIRDQIFRYVHDPECVATTG, the protein stability index rises from 1.58 to 1.86.

Compared with GGFPCIRDQIFRYVHDPECVATTG, GGFPHIRDQIFRYVHDPECVATTG is higher in protein stability index: 1.86 for the first, 2.14 for the second.

Going from GGFPTIRDQIFRYVHDPECVATTG to GGFPYIRDQIFRYVHDPECVATTG, the protein stability index falls from 2.28 to 2.26.

Compared with GGFPMIRDQIFRYVHDPECVATTG, GGFPFIRDQIFRYVHDPECVATTG is lower in protein stability index: 2.71 for the first, 1.58 for the second.

First: GGFPNIRDQIFRYVHDPECVATTG
Second: GGFPSIRDQIFRYVHDPECVATTG
The protein stability index of the first is higher: 2.4 for the first, 2.23 for the second.

Compared with GGFPGIRDQIFRYVHDPECVATTG, GGFPDIRDQIFRYVHDPECVATTG is higher in protein stability index: 2.32 for the first, 2.61 for the second.

Compared with GGFPAIRDQIFRYVHDPECVATTG, GGFPWIRDQIFRYVHDPECVATTG is lower in protein stability index: 2.39 for the first, 1.53 for the second.

Compared with GGFPLIRDQIFRYVHDPECVATTG, GGFPEIRDQIFRYVHDPECVATTG is higher in protein stability index: 1.64 for the first, 2.64 for the second.

First: GGFPKIRDQIFRYVHDPECVATTG
Second: GGFPQIRDQIFRYVHDPECVATTG
The protein stability index of the first is lower: 1.19 for the first, 1.59 for the second.

Compared with PGFPIIRDQIFRYVHDPECVATTG, TGFPIIRDQIFRYVHDPECVATTG is higher in protein stability index: 2.51 for the first, 2.74 for the second.

Going from WGFPIIRDQIFRYVHDPECVATTG to SGFPIIRDQIFRYVHDPECVATTG, the protein stability index rises from 1.73 to 2.01.

Compared with VGFPIIRDQIFRYVHDPECVATTG, FGFPIIRDQIFRYVHDPECVATTG is lower in protein stability index: 1.79 for the first, 1.55 for the second.

Compared with IGFPIIRDQIFRYVHDPECVATTG, MGFPIIRDQIFRYVHDPECVATTG is lower in protein stability index: 2.05 for the first, 1.64 for the second.

Going from HGFPIIRDQIFRYVHDPECVATTG to LGFPIIRDQIFRYVHDPECVATTG, the protein stability index falls from 2.02 to 1.64.

Going from RGFPIIRDQIFRYVHDPECVATTG to EGFPIIRDQIFRYVHDPECVATTG, the protein stability index rises from 2.16 to 2.6.

First: DGFPIIRDQIFRYVHDPECVATTG
Second: KGFPIIRDQIFRYVHDPECVATTG
The protein stability index of the first is higher: 2.65 for the first, 2.15 for the second.

First: YGFPIIRDQIFRYVHDPECVATTG
Second: AGFPIIRDQIFRYVHDPECVATTG
The protein stability index of the first is lower: 1.55 for the first, 2.29 for the second.

First: NGFPIIRDQIFRYVHDPECVATTG
Second: QGFPIIRDQIFRYVHDPECVATTG
The protein stability index of the first is higher: 2.4 for the first, 2.15 for the second.

Going from CGFPIIRDQIFRYVHDPECVATTG to GGFPIMRDQIFRYVHDPECVATTG, the protein stability index rises from 1.21 to 1.46.

Compared with GGFPIKRDQIFRYVHDPECVATTG, GGFPIGRDQIFRYVHDPECVATTG is lower in protein stability index: 2.52 for the first, 2.23 for the second.

First: GGFPIARDQIFRYVHDPECVATTG
Second: GGFPIPRDQIFRYVHDPECVATTG
The protein stability index of the first is higher: 2.57 for the first, 2.35 for the second.

Compared with GGFPIWRDQIFRYVHDPECVATTG, GGFPIHRDQIFRYVHDPECVATTG is higher in protein stability index: 1.82 for the first, 2.32 for the second.

Going from GGFPIQRDQIFRYVHDPECVATTG to GGFPICRDQIFRYVHDPECVATTG, the protein stability index falls from 2.69 to 1.96.

Compared with GGFPISRDQIFRYVHDPECVATTG, GGFPINRDQIFRYVHDPECVATTG is lower in protein stability index: 2.44 for the first, 2.34 for the second.

Going from GGFPIFRDQIFRYVHDPECVATTG to GGFPIYRDQIFRYVHDPECVATTG, the protein stability index rises from 1.46 to 1.99.

Going from GGFPIDRDQIFRYVHDPECVATTG to GGFPITRDQIFRYVHDPECVATTG, the protein stability index falls from 3.56 to 2.76.

Compared with GGFPIERDQIFRYVHDPECVATTG, GGFPILRDQIFRYVHDPECVATTG is lower in protein stability index: 3.52 for the first, 2.16 for the second.

Going from GGFPIVRDQIFRYVHDPECVATTG to GGFPIRRDQIFRYVHDPECVATTG, the protein stability index rises from 1.61 to 2.13.
